Patent US20240133885A1
Each block holds one substance with its values, some of them ahead of it.

How the values were obtained:
[1] = biological target: CD20-GA10-(vL-vH)-MYC-BBz-T2A-PAC; assay: Luc assay, supernatant on Jurkat cells expressing the CAR (parental 484)
[2] = biological target: CD20-GA10-(vL-vH)-MYC-BBz-T2A-PAC; assay: Luc assay, supernatant on NK92MI cells expressing the CAR (parental 510)
[3] = biological target: J6MO-(vL-vH)-MYC-28z-T2A-Pac; assay: NLuc assay, supernatant on NK92MI cells expressing the CAR (no CAR 89)
[4] = biological target: HIV1 envelop glycoprotein gp120 (HIV1); assay: Luc assay, supernatant on HL2/3 cells expressing HIV1 gp120 (control 5700)
Amyloid [5] = assay: Luc assay, supernatant on BC-3 cells
Amyloid [6] = assay: Luc assay, supernatant on MM1S cells
Amyloid [7] = assay: Luc assay, supernatant on U266 cells
Amyloid [8] = assay: Luc assay, supernatant on BV173 cells
Amyloid [9] = assay: Luc assay, supernatant on JSC-1 cells
Amyloid [10] = assay: Luc assay, supernatant on BCBL-1 cells
[11] = biological target: CD200R-huDx182-(vL-vH)-Myc-BBz-T2A-PAC; assay: NLuc assay, supernatant on 293FT cells transfected with the CAR
[12] = biological target: FMC63-(vL-vH)-Myc-BBz-T2A-Pac; assay: as above
Lym1 [13] = assay: Luc assay, supernatant on BC-1 cells
Lym1 [14] = assay: Luc assay, supernatant on BC-3 cells
Lym1 [15] = assay: Luc assay, supernatant on MM1S cells
Lym1 [16] = assay: Luc assay, supernatant on Raji cells
Lym1 [17] = assay: Luc assay, supernatant on U266 cells
Lym1 [18] = assay: Luc assay, supernatant on BV173 cells
Lym1 [19] = assay: Luc assay, supernatant on JSC-1 cells
Lym1 [20] = assay: Luc assay, supernatant on BCBL-1 cells

Mean Luc activity [1]: 7610
Mean Luc activity [2]: 1420
Substance: CD20-ECx2-ECD-GGSG-TurboLuc16-4xFlag-2xStreptag-8xHis-T2A-Pac (receptor)

Mean Luc activity [3]: 602
Substance: BCMA-ECD-GGSG-NLuc-4xFlag-2xStreptag-8xHis-T2A-Pac (from UniProt Q02223 1-54) (receptor)

Luc activity (Amyloid [5]): 3110
Luc activity (Amyloid [6]): 8170
Luc activity (Amyloid [7]): 3930
Luc activity (Amyloid [8]): 6220
Luc activity (Amyloid [9]): 8230
Luc activity (Amyloid [10]): 5690
Substance: SP-Amyloid-158-(vL-vH)-GGSG-NLuc-4xFLAG-x2STREP-8xHis-T2A-PAC (scFv)

Mean Luc activity [11]: 18700
Substance: CD200R-ECD-GGSG-NLuc-4xFlag-2xStreptag-8xHis-T2A-Pac (receptor)

MEAN LUC ACTIVITY (Lym1 [13]): 7390
Luc activity (Lym1 [14]): 11700
MEAN LUC ACTIVITY (Lym1 [14]): 11700
Luc activity (Lym1 [15]): 1580
MEAN LUC ACTIVITY (Lym1 [15]): 1580
MEAN LUC ACTIVITY (Lym1 [16]): 580000
Luc activity (Lym1 [17]): 258
MEAN LUC ACTIVITY (Lym1 [17]): 258
Luc activity (Lym1 [18]): 5560
MEAN LUC ACTIVITY (Lym1 [18]): 5560
Luc activity (Lym1 [19]): 6770
MEAN LUC ACTIVITY (Lym1 [19]): 6770
Luc activity (Lym1 [20]): 7780
MEAN LUC ACTIVITY (Lym1 [20]): 7780
Substance: CD8SP-Lym1(vL-vH)-GGSG-NLuc-AcV5 (scFv)

More lines, now with the values behind:

Substance: CD8SP-HIV1-X5-(vL-vH)-GGSG-NLuc-4xFLAG-x2STREP-8xHis-T2A-PAC (scFv)
Mean Luc activity [4]: 12900

Substance: CD8SP-HIV1-3BNC117-(vL-vH)-GGSG-NLuc-4xFLAG-x2STREP-8xHis-T2A-PAC (scFv)
Mean Luc activity [4]: 8870

Substance: CD8SP-HIV1-VR-C01-(vL-vH)-GGSG-NLuc-4xFLAG-x2STREP-8xHis-T2A-PAC (scFv)
Mean Luc activity [4]: 9330

Substance: SLAMF7-CS1-ECD-GGSG-NLuc-4xFlag-2xStreptag-8xHis-T2A-Pac (receptor)
Mean Luc activity [12]: 37800
